Measured values reported in patent publication US20220073621A1 (EUCURE BEIJING BIOPHARMA, published 2022).

T1: human-mouse chimeric PD-L1 on CHO cells (human-mouse chimeric, UniProt Q9EP73 19-290 (mouse entry))
T1 construct: expressed in CHO cells; also called chiPD-L1
T1 chain: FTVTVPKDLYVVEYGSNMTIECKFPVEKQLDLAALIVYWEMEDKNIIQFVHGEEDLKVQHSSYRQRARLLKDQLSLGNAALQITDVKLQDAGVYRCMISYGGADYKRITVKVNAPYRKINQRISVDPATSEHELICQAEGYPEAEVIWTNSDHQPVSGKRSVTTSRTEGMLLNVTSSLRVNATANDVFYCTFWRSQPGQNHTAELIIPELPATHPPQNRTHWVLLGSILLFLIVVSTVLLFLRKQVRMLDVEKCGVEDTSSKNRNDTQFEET

T2: Rhesus monkey PD-L1 on CHO cells (rhesus monkey, UniProt Q9NZQ7 19-290 (human entry))
T2 construct: Expressed in CHO cells for the cross-reactivity test; also called rmPD-L1; NP_001077358.1
T2 chain: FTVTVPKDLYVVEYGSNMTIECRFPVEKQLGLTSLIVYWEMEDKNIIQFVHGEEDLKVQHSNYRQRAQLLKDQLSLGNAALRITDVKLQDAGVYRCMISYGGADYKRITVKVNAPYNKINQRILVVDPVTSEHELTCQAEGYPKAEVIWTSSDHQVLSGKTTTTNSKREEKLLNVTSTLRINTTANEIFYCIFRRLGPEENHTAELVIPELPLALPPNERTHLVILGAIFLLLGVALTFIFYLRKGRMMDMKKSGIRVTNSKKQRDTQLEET


Legend:
Mouse PD-L1 on CHO cells [1] = target: T3, Mouse PD-L1 on CHO cells (mouse, UniProt Q9EP73 19-290); experiment: flow cytometry, CHO-mPD-L1 cells, Anti-human IgG Fc-FITC, antibody 1 µg/ml
T3 construct: Expressed in CHO cells for the cross-reactivity test; also called mPD-L1; murine PD-L1 protein
Target sequence in this assay (Q9EP73 19-290 limits assumed): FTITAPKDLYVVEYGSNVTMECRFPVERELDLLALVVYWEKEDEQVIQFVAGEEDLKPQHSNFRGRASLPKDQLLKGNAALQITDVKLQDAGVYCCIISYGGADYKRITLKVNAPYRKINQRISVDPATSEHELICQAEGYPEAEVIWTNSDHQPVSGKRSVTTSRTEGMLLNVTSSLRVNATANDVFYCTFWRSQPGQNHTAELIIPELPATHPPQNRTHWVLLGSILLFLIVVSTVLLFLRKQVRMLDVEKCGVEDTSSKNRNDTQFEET

Mouse PD-L1 on CHO cells [2] = target: T3, Mouse PD-L1 on CHO cells; experiment: flow cytometry on CHO cells expressing mPD-L1
Source text: (§1) The rhesus monkey PD-L1 protein coding sequence (rmPD-L1, SEQ ID NO: 54), the mouse PD-L1 protein coding sequence (mPD-L1, SEQ ID NO: 53), and the human-mouse chimeric PD-L1 (the extracellular region of the mouse PD-L1 protein was replaced with human protein fragments) protein coding sequence (chiPD-L1, SEQ ID NO: 55) were transferred into CHO cells for protein expression and used for the antibody cross-reactivity testing.
(§2) The test was detailed as follows: a 96-well cell culture plate was used, and the above-mentioned CHO cells expressing different PD-L1 proteins (25 μl, 2×10⁴ cells/well) was added to each well, and then 25 μl of the ascites purified anti-PD-L1 antibodies (1 μg/ml) were added to each well. The mixture was incubated at 4° C. for 30 minutes. The 96-well cell culture plate was centrifuged at 1200 rpm for 5 minutes and washed twice with PBS. Subsequently, 50 μl of anti-mouse IgG Fc-FITC at 1:100 dilution was added to each well, and was incubated at 4° C. for 30 minutes. Subsequently, the 96-well cell culture plate was centrifuged at 1200 rpm for 5 minutes, and washed once with PBS. Then 200 μl of PBS was added to each well, and flow cytometry analysis was performed.

hPD-L1-His = target: T4, hPD-L1-His (human, UniProt Q9NZQ7 19-238); experiment: SPR (Biacore T200), antibody on Protein A chip, hPD-L1-His injected, 1:1 fit
T4 construct: Bought protein; also called hPD-L1-His (manufactured by Edison); not shown: His tag
T4 sequence (Q9NZQ7 19-238 limits assumed): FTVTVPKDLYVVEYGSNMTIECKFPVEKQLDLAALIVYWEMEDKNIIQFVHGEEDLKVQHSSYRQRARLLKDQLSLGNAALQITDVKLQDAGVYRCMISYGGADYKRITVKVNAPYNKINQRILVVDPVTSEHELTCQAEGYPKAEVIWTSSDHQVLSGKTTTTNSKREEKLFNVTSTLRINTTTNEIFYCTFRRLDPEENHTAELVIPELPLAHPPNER
Protocol: Subsequently, the binding affinity of the anti-PD-L1 chimeric antibody, humanized antibody, and marketed control antibody to hPD-L1-His (manufactured by Edison) were determined by surface plasmon resonance (Biacore T200 biosensor, Biacore, INC, Piscataway N.J.) equipped with pre-immobilized Protein A sensor chips.
The detection results were read after the chip was regenerated with pH 2.0 glycine (30 μl/min, 10-20 s). Kinetic association rates (kon) and dissociation rates (koff) were obtained simultaneously by fitting the data globally to a 1:1 Langmuir binding model (Karlsson, R. Roos, H. Fagerstam, L. Petersson, B., 1994. Methods Enzymology 6. 99-110) using Biacore T200 Evaluation Software 3.0. Affinities were deduced from the quotient of the kinetic rate constants (KD=koff/kon).

[3] = target: T1, human-mouse chimeric PD-L1 on CHO cells; experiment: flow cytometry, CHO-chiPD-L1 cells, Anti-mouse-IgGFc-FITC, antibody 1 µg/ml
Source text: as §1, §2

[4] = target: T2, Rhesus monkey PD-L1 on CHO cells; experiment: flow cytometry, CHO-rmPD-L1 cells, Anti-mouse-IgGFc-FITC, antibody 1 µg/ml
Source text: as §1, §2

Mouse PD-L1 on CHO cells [5] = target: T3, Mouse PD-L1 on CHO cells; experiment: flow cytometry, CHO-mPD-L1 cells, Anti-mouse-IgGFc-FITC, antibody 1 µg/ml
Source text: as §1, §2

Binder | % cells in the FITC-positive gate (Mouse PD-L1 on CHO cells [1]) | binding result (Mouse PD-L1 on CHO cells [2]) | Kd (hPD-L1-His) | koff (hPD-L1-His) | kon (hPD-L1-His) | % cells in the FITC-positive gate [3] | % cells in the FITC-positive gate [4] | % cells in the FITC-positive gate (Mouse PD-L1 on CHO cells [5])
7E4-H3K1-IgG1 (antibody, V domains shown) VH: QVQLVQSGAEVVKPGASVKISCKGSGFKFTDYAIHWVRQAPGKSLEWMGVISIYYGEASYNQKFKDKVTLTVDTSASTAYMELSSLRSEDTAIYYCAREDYYGSSSYFDYWGQGTLLTVSS VL: DNQLTQSPSFLSASVGDRVTITCSASSSVSSSYLHWYQQKPGAAPKPLIHRTSNLASGVPSRFSGSGSGTEFTLTISSLQPEDFATYYCQQWSGYPYTFGGGTKLEIK | – | – | 23.9 nM | 0.00352 s⁻¹ | 147000 M⁻¹ s⁻¹ | – | – | –
7E4-H3K2-IgG1 (antibody, V domains shown) VH: QVQLVQSGAEVVKPGASVKISCKGSGFKFTDYAIHWVRQAPGKSLEWMGVISIYYGEASYNQKFKDKVTLTVDTSASTAYMELSSLRSEDTAIYYCAREDYYGSSSYFDYWGQGTLLTVSS VL: DNVLTQSPSFLSASVGDRVTMTCSASSSVSSSYLHWYQQKPGASPKPLIHRTSNLASGVPSRFSGSGSGTEFTLTISSLQPEDFATYYCQQWSGYPYTFGGGTKLEIK | – | – | 19.3 nM | 0.00299 s⁻¹ | 155000 M⁻¹ s⁻¹ | – | – | –
7E4-H3K3-IgG1 (antibody, V domains shown) VH: QVQLVQSGAEVVKPGASVKISCKGSGFKFTDYAIHWVRQAPGKSLEWMGVISIYYGEASYNQKFKDKVTLTVDTSASTAYMELSSLRSEDTAIYYCAREDYYGSSSYFDYWGQGTLLTVSS VL: ENVLTQSPSFLSASVGDRVTMTCSASSSVSSSYLHWYQQKSGASPKPLIHRTSNLASGVPSRFSGSGSGTEYTLTISSVQPEDFATYYCQQWSGYPYTFGGGTKLEIK | – | – | 14.5 nM | 0.00218 s⁻¹ | 150000 M⁻¹ s⁻¹ | – | – | –
23-2A6-mHvKv-IgG1 (antibody, V domains shown) VH: QVQLKESGPGLVAPSQSLSITCTVSGFSLTSYDISWIRQPPGKGLEWLGAIWTGGGTNYNSAFMSRLSISKDNSKSQVFLKMNSLQTDDTAIYYCVRDPYYYAMDYWGQGTSVTVSS VL: DIQMNQSPSSLSASLGDTITITCHASQNLNVWLSWYQQKPGNIPKLLIYKASNLHTGVPSRFSGSGSGTGFTLTISSLQPEDIATYYCQQGQSYPRTFGGGTKLEIK | 0.886% | no binding (tested: 1 µg/ml) | – | – | – | – | – | –
17-7E4 (antibody, V domains shown, Murine monoclonal antibody from hybridoma, purified from ascites) VH: QVQLQQSGAELVRPGVSVKISCKGSGFKFTDYAIHWVKQSHAKSLEWIGVISIYYGEASYNQKFKDKATLTVDTSSSTAYMELARLTSEDSAIYYCAREDYYGSSSYFDYWGQGTALTVSS VL: not shown | – | no binding (tested: 1 µg/ml) | – | – | – | 67.8% | 64.9% | 1.1%
08-3F2 (antibody, V domains shown, Murine monoclonal antibody from hybridoma, purified from ascites) VH: DVQLQESGPDLVKPSQTLSLTCTVTGYSITSGYNWHWIRQFPGNKLEWMGYIHHSSITNYNPSLKSRISITRDTSKNQFFLQLSSVTTEDTATFYCAREGYDYDWFAYWGQGTLVTVSA VL: DIVLAQSPATLSVTPGDSVSLSCRASQSISNNLHWYQQKSHESPRLLIKYASQSISGIPSRFSGSGSGTDFTLSINSVETEDFGMYFCQQSKSWPFTFGSGTRLEIK | – | no binding (tested: 1 µg/ml) | – | – | – | 88.3% | 60.9% | 7.37%
07-6A11 (antibody, V domains shown, Murine monoclonal antibody from hybridoma, purified from ascites) VH: DVQLVESGGGLVQPGGSRKLSCAASGFTFSSFGMHWVRQAPEKGLEWVAYISSGSNTIYYADTVKGRFTISRDNPKNTLFLQMTSLRSEDTAIYYCTRNGYDGWYAMDYWGQGTSVTVSS VL: QIVLTQSPAIMSASPGEKVTMTCSASSSVSYIHWFQQKSGTSPKRWIYDTSKLASGVPARFSGRGSGTSYSLTISSMEAEDAATYYCQQWSTNPFTFGSGTKLEIK | – | no binding (tested: 1 µg/ml) | – | – | – | 77.4% | 51.4% | 4.56%

More lines, now with the values ahead:

% cells in the FITC-positive gate (Mouse PD-L1 on CHO cells [1]) | binding result (Mouse PD-L1 on CHO cells [2]) | Kd (hPD-L1-His) | koff (hPD-L1-His) | kon (hPD-L1-His) | % cells in the FITC-positive gate [3] | % cells in the FITC-positive gate [4] | % cells in the FITC-positive gate (Mouse PD-L1 on CHO cells [5]) | Binder
15.5% | no binding (tested: 1 µg/ml) | – | – | – | – | – | – | 24-1F4-mHvKv-IgG1 (antibody, V domains shown) VH: EVQLRESGPSLVRPSQTLSLTCSVTGDSFTSGYWNWIRKFPGNELESMGYISYSGSTYYNPSLKSRISITRDTSKSQFYLQLSSVTAEDTATYYCARSEGWLLPFAYWGQGTLVTVSA VL: DIVMSQSPSSLPVSVGEKVTMSCKSSQSLLYSSNQKNSLAWYQQKPGQSPKLLIYWASTRESGVPDRFTGSGSGTDFTLTISSVQAEDLSVYYCQQYYGYPFTFGSGTKLEIK
3.07% | no binding (tested: 1 µg/ml) | – | – | – | – | – | – | 23-4A8-mHvKv-IgG1 (antibody, V domains shown) VH: EVQLQESGPSLVKPSQTLSLTCSVTGDSITSGYWNWIRKFPGNKLEYMGYISYTGSTYYNPSLKSRFSITRDTSKNQYFLQLNSVTTEDTATYYCASYEGWLLPFAYWGQGTLVTVSA VL: DIVMSQSPSSLAVSVGEKVPLSCKSSQSLLYSSNQKSSLAWYQQKPGQSPKLLIYWASTRESGVPDRFTGSGSGTDFTLTISSVKAEDLAVYYCQQYYGYPFTFGSGTKLEIK
0.556% | no binding (tested: 1 µg/ml) | – | – | – | – | – | – | 33-10C9-mHvKv-IgG1 (antibody, V domains shown) VH: QVQLQQPGAELVKPGSSVKLSCKASGYTFTTYYIYWVKQRPGQGLEWIGGINPYNGGTSFNEKFESKATLTVDISSSTAFMQLSSLTSEDSAVYYCTRDGNYVDYWGQGTTLTVSS VL: QIVLTQSPAIMSASPGEKVTITCSASSTVSYVHWLQQKPDTSPKLWIYSTSNLASGVPARFSGSGSGTSYSLTISRMEAEDAATYYCQQRSSSPPTFGSGTKLEIK
